Laboratory results: paper PMC11574045, “A cofactor-induced repressive type of transcription factor condensation can be induced by synthetic peptides to suppress tumorigenesis” (The EMBO Journal, 2024)

B1: GLI1 (protein, UniProt P08151 1-1106, looked up)
Zinc finger protein GLI1: MFNSMTPPPISSYGEPCCLRPLPSQGAPSVGTEGLSGPPFCHQANLMSGPHSYGPARETNSCTEGPLFSSPRSAVKLTKKRALSISPLSDASLDLQTVIRTSPSSLVAFINSRCTSPGGSYGHLSIGTMSPSLGFPAQMNHQKGPSPSFGVQPCGPHDSARGGMIPHPQSRGPFPTCQLKSELDMLVGKCREEPLEGDMSSPNSTGIQDPLLGMLDGREDLEREEKREPESVYETDCRWDGCSQEFDSQEQLVHHINSEHIHGERKEFVCHWGGCSRELRPFKAQYMLVVHMRRHTGEKPHKCTFEGCRKSYSRLENLKTHLRSHTGEKPYMCEHEGCSKAFSNASDRAKHQNRTHSNEKPYVCKLPGCTKRYTDPSSLRKHVKTVHGPDAHVTKRHRGDGPLPRAPSISTVEPKREREGGPIREESRLTVPEGAMKPQPSPGAQSSCSSDHSPAGSAANTDSGVEMTGNAGGSTEDLSSLDEGPCIAGTGLSTLRRLENLRLDQLHQLRPIGTRGLKLPSLSHTGTTVSRRVGPPVSLERRSSSSSSISSAYTVSRRSSLASPFPPGSPPENGASSLPGLMPAQHYLLRARYASARGGGTSPTAASSLDRIGGLPMPPWRSRAEYPGYNPNAGVTRRASDPAQAADRPAPARVQRFKSLGCVHTPPTVAGGGQNFDPYLPTSVYSPQPPSITENAAMDARGLQEEPEVGTSMVGSGLNPYMDFPPTDTLGYGGPEGAAAEPYGARGPGSLPLGPGPPTNYGPNPCPQQASYPDPTQETWGEFPSHSGLYPGPKALGGTYSQCPRLEHYGQVQVKPEQGCPVGSDSTGLAPCLNAHPSEGPPHPQPLFSHYPQPSPPQYLQSGPYTQPPPDYLPSEPRPCLDFDSPTHSTGQLKAQLVCNYVQSQQELLWEGGGREDAPAQEPSYQSPKFLGGSQVSPSRAKAPVNTYGPGFGPNLPNHKSGSYPTPSPCHENFVVGANRASHRAAAPPRLLPPLPTCYGPLKVGGTNPSCGHPEVGRLGGGPALYPPPEGQVCNPLDSLDLDNTQLDFVAILDEPQGLSPPPSHDQRGSSGHTPPPSGPPNMAVGNMSVLLRSLPGETEFLNSSA
B2: GCN512 (protein, UniProt Q92830 2-837, looked up)
Histone acetyltransferase …: AEPSQAPTPAPAAQPRPLQSPAPAPTPTPAPSPASAPIPTPTPAPAPAPAAAPAGSTGTGGPGVGSGGAGSGGDPARPGLSQQQRASQRKAQVRGLPRAKKLEKLGVFSACKANETCKCNGWKNPKPPTAPRMDLQQPAANLSELCRSCEHPLADHVSHLENVSEDEINRLLGMVVDVENLFMSVHKEEDTDTKQVYFYLFKLLRKCILQMTRPVVEGSLGSPPFEKPNIEQGVLNFVQYKFSHLAPRERQTMFELSKMFLLCLNYWKLETPAQFRQRSQAEDVATYKVNYTRWLCYCHVPQSCDSLPRYETTHVFGRSLLRSIFTVTRRQLLEKFRVEKDKLVPEKRTLILTHFPKFLSMLEEEIYGANSPIWESGFTMPPSEGTQLVPRPASVSAAVVPSTPIFSPSMGGGSNSSLSLDSAGAEPMPGEKRTLPENLTLEDAKRLRVMGDIPMELVNEVMLTITDPAAMLGPETSLLSANAARDETARLEERRGIIEFHVIGNSLTPKANRRVLLWLVGLQNVFSHQLPRMPKEYIARLVFDPKHKTLALIKDGRVIGGICFRMFPTQGFTEIVFCAVTSNEQVKGYGTHLMNHLKEYHIKHNILYFLTYADEYAIGYFKKQGFSKDIKVPKSRYLGYIKDYEGATLMECELNPRIPYTELSHIIKKQKEIIKKLIERKQAQIRKVYPGLSCFKEGVRQIPVESVPGIRETGWKPLGKEKGKELKDPDQLYTTLKNLLAQIKSHPSAWPFMEPVKKSEAPDYYEVIRFPIDLKTMTERLRSRYYVTRKLFVADLQRVIANCREYNPPDSEYCRCASALEKFFYFKLKEGGLIDK
B3: GTF2A1 (protein, UniProt P52655 2-376, looked up)
Transcription initiation …: ANSANTNTVPKLYRSVIEDVINDVRDIFLDDGVDEQVLMELKTLWENKLMQSRAVDGFHSEEQQLLLQVQQQHQPQQQQHHHHHHHQQAQPQQTVPQQAQTQQVLIPASQQATAPQVIVPDSKLIQHMNASNMSAAATAATLALPAGVTPVQQILTNSGQLLQVVRAANGAQYIFQPQQSVVLQQQVIPQMQPGGVQAPVIQQVLAPLPGGISPQTGVIIQPQQILFTGNKTQVIPTTVAAPTPAQAQITATGQQQPQAQPAQTQAPLVLQVDGTGDTSSEEDEDEEEDYDDDEEEDKEKDGAEDGQVEEEPLNSEDDVSDEEGQELFDTENVVVCQYDKIHRSKNKWKFHLKDGIMNLNGRDYIFSKAIGDAEW
B4: GRHL3 (protein, UniProt Q8TE85 1-626, looked up)
Grainyhead-like protein 3 …: MSNELDFRSVRLLKNDPVNLQKFSYTSEDEAWKTYLENPLTAATKAMMRVNGDDDSVAALSFLYDYYMGPKEKRILSSSTGGRNDQGKRYYHGMEYETDLTPLESPTHLMKFLTENVSGTPEYPDLLKKNNLMSLEGALPTPGKAAPLPAGPSKLEAGSVDSYLLPTTDMYDNGSLNSLFESIHGVPPTQRWQPDSTFKDDPQESMLFPDILKTSPEPPCPEDYPSLKSDFEYTLGSPKAIHIKSGESPMAYLNKGQFYPVTLRTPAGGKGLALSSNKVKSVVMVVFDNEKVPVEQLRFWKHWHSRQPTAKQRVIDVADCKENFNTVEHIEEVAYNALSFVWNVNEEAKVFIGVNCLSTDFSSQKGVKGVPLNLQIDTYDCGLGTERLVHRAVCQIKIFCDKGAERKMRDDERKQFRRKVKCPDSSNSGVKGCLLSGFRGNETTYLRPETDLETPPVLFIPNVHFSSLQRSGGAAPSAGPSSSNRLPLKRTCSPFTEEFEPLPSKQAKEGDLQRVLLYVRRETEEVFDALMLKTPDLKGLRNAISEKYGFPEENIYKVYKKCKRGETSLLHPRLSRHPPPDCLECSHPVTQVRNMGFGDGFWRQRDLDSNPSPTTVNSLHFTVNSE
B5: GLI4 (protein, UniProt P10075 1-376, looked up)
Zinc finger protein GLI4: MAALGDIQESPSVPSPVSLSSPGTPGTQHHEPQLHLHGHQHGSPGSSPKVLSQPSDLDLQDVEEVEIGRDTFWPDSEPKPEQAPRSPGSQAPDEGAGGALRSLLRSLPRRARCSAGFGPESSAERPAGQPPGAVPCAQPRGAWRVTLVQQAAAGPEGAPERAAELGVNFGRSRQGSARGAKPHRCEACGKSFKYNSLLLKHQRIHTGEKPYACHECGKRFRGWSGFIQHHRIHTGEKPYECGQCGRAFSHSSHFTQHLRIHNGEKPYKCGECGQAFSQSSNLVRHQRLHTGEKPYACSQCGKAFIWSSVLIEHQRIHTGEKPYECSDCGKAFRGRSHFFRHLRTHTGEKPFACGACGKAFGQSSQLIQHQRVHYRE
B6: GMNN (protein, UniProt O75496 1-209, looked up)
Geminin: MNPSMKQKQEEIKENIKNSSVPRRTLKMIQPSASGSLVGRENELSAGLSKRKHRNDHLTSTTSSPGVIVPESSENKNLGGVTQESFDLMIKENPSSQYWKEVAEKRRKALYEALKENEKLHKEIEQKDNEIARLKKENKELAEVAEHVQYMAELIERLNGEPLDNFESLDNQEFDSEEETVEDSLVEDSEIGTCAEGTVSSSTDAKPCI
B7: GPS2 (protein, UniProt Q13227 1-327, looked up)
G protein pathway suppressor 2: MPALLERPKLSNAMARALHRHIMMERERKRQEEEEVDKMMEQKMKEEQERRKKKEMEERMSLEETKEQILKLEEKLLALQEEKHQLFLQLKKVLHEEEKRRRKEQSDLTTLTSAAYQQSLTVHTGTHLLSMQGSPGGHNRPGTLMAADRAKQMFGPQVLTTRHYVGSAAAFAGTPEHGQFQGSPGGAYGTAQPPPHYGPTQPAYSPSQQLRAPSAFPAVQYLSQPQPQPYAVHGHFQPTQTGFLQPGGALSLQKQMEHANQQTGFSDSSSLRPMHPQALHPAPGLLASPQLPVQMQPAGKSGFAATSQPGPRLPFIQHSQNPRFYHK
B8: GTF2A1L (protein, UniProt Q9UNN4 1-478, looked up)
TFIIA-alpha and beta-like …: MACLNPVPKLYRSVIEDVIEGVRNLFAEEGIEEQVLKDLKQLWETKVLQSKATEDFFRNSIQSPLFTLQLPHSLHQTLQSSTASLVIPAGRTLPSFTTAELGTSNSSANFTFPGYPIHVPAGVTLQTVSGHLYKVNVPIMVTETSGRAGILQHPIQQVFQQLGQPSVIQTSVPQLNPWSLQATTEKSQRIETVLQQPAILPSGPVDRKHLENATSDILVSPGNEHKIVPEALLCHQESSHYISLPGVVFSPQVSQTNSNVESVLSGSASMAQNLHDESLSTSPHGALHQHVTDIQLHILKNRMYGCDSVKQPRNIEEPSNIPVSEKDSNSQVDLSIRVTDDDIGEIIQVDGSGDTSSNEEIGSTRDADENEFLGNIDGGDLKVPEEEADSISNEDSATNSSDNEDPQVNIVEEDPLNSGDDVSEQDVPDLFDTDNVIVCQYDKIHRSKNKWKFYLKDGVMCFGGRDYVFAKAIGDAEW
B9: GLIS3 (protein, UniProt Q8NEA6 1-775, looked up)
Zinc finger protein GLIS3: MMVQRLGLISPPASQVSTACNQISPSLQRAMNAANLNIPPSDTRSLISRESLASTTLSLTESQSASSMKQEWSQGYRALPSLSNHGSQNGLDLGDLLSLPPGTSMSSNSVSNSLPSYLFGTESSHSPYPSPRHSSTRSHSARSKKRALSLSPLSDGIGIDFNTIIRTSPTSLVAYINGSRASPANLSPQPEVYGHFLGVRGSCIPQPRPVPGSQKGVLVAPGGLALPAYGEDGALEHERMQQLEHGGLQPGLVNHMVVQHGLPGPDSQSAGLFKTERLEEFPGSTVDLPPAPPLPPLPPPPGPPPPYHAHAHLHHPELGPHAQQLALPQATLDDDGEMDGIGGKHCCRWIDCSALYDQQEELVRHIEKVHIDQRKGEDFTCFWAGCPRRYKPFNARYKLLIHMRVHSGEKPNKCTFEGCEKAFSRLENLKIHLRSHTGEKPYLCQHPGCQKAFSNSSDRAKHQRTHLDTKPYACQIPGCTKRYTDPSSLRKHVKAHSSKEQQARKKLRSSTELHPDLLTDCLTVQSLQPATSPRDAAAEGTVGRSPGPGPDLYSAPIFSSNYSSRSGTAAGAVPPPHPVSHPSPGHNVQGSPHNPSSQLPPLTAVDAGAERFAPSAPSPHHISPRRVPAPSSILQRTQPPYTQQPSGSHLKSYQPETNSSFQPNGIHVHGFYGQLQKFCPPHYPDSQRIVPPVSSCSVVPSFEDCLVPTSMGQASFDVFHRAFSTHSGITVYDLPSSSSSLFGESLRSGAEDATFLQISTVDRCPSQLSSVYTEG
B10: GDNF (protein, UniProt P39905 78-211, looked up)
Glial cell line-derived …: SPDKQMAVLPRRERNRQAAAANPENSRGKGRRGQRGKNRGCVLTAIHLNVTDLGLGYETKEELIFRYCSGSCDAAETTYDKILKNLSRNRRLVSDKVGQACCRPIAFDDDLSFLDDNLVYHILRKHSAKRCGCI

Test system: HEK293FT cells transfected with TF library
Assay: Screening of TF condensates based on fluorescent puncta
Type: cell-based
Details: Figure 1B numerical data; TF library screen, one value per transcriptional factor
How it was run: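 Puncta scoring used automated confocal imaging of fifty random fields per well, after anti-Flag or anti-GAL4 immunofluorescence (Alexa 488) in PFA-fixed cells. HEK293FT cells carried TF library plasmids delivered with PEI (1.6 μg/ml DNA). At 60 h they were switched for 12 h to glucose-containing or glucose-free medium.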

Molecule	Z score of condensed fraction
B1	1.126
B2	-0.5333
B3	0.06864
B4	-0.6859
B5	0.3449
B6	0.2471
B7	-0.6135
B8	3.206
B9	0.8153
B10	-0.9627
